Data reported in US8846873B2, “Antibodies directed to GPNMB and uses thereof” (Celldex Therapeutics, Inc., priority 2004, dated 2014).

T1: GPNMB (Homo sapiens, UniProt Q14956)
T1 construct: made in house; host or cells: HEK 293
T1 sequence (Q14956 23-492): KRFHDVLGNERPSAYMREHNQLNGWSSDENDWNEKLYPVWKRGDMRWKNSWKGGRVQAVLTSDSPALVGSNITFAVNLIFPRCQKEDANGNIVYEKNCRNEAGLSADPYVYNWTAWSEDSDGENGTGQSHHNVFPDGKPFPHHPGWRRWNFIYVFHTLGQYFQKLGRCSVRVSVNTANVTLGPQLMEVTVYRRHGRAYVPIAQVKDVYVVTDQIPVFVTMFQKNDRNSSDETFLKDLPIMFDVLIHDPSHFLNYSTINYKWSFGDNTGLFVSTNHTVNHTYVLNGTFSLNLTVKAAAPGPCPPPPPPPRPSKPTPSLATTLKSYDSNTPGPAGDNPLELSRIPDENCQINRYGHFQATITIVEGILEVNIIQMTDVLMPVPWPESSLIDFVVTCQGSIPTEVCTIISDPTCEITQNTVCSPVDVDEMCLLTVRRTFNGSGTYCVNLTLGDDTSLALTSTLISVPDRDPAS


Experiments:
[1] = biological target: T1, GPNMB; experiment: BiaCore 2000 biosensor binding of hybridoma supernatant mAb to GPNMB; settings: mAb captured on protein A, GPNMB 880 nM, 1:1 kinetic model
Procedure: Certain Hybridoma cell supernatants (29) were analyzed for binding to GPNMB by BiaCore® 2000 biosensor equipped with a research-grade CMS sensor chip. A 1:25 dilution of cell supernatant was passed over a protein A surface for 5 min followed by washing the surface for 10 mins. Subsequently, GPNMB was injected for 90 sec. over the surface at a concentration of 880 nM followed by dissociation. Double-referenced binding data were obtained by subtracting the signal from a control flow cell and subtracting the baseline drift of a buffer injected just prior to the antigen injection. GPNMB binding ddata for each mAb was normalized for the amount of mAb captured on each surface. Normalized, drift corrected responses were also measured. The sensorgrams were fit to a simple 1:1 kinetic model.

[2] = tested on: normal and tumor human tissue microarrays; experiment: GPNMB immunohistochemistry (IHC) analysis
Procedure: Anti-GPNMB monoclonal antibodies were evaluated for reactivity with frozen and fixed tissue specimens. Tissue sections (5 μm) were cut from formalin fixed and paraffin embedded tissue samples and were rehydrated through incubations in xylene and a graded ethanol series terminating in PBS. Endogenous peroxidase activity was quenched in a 3% solution of hydrogen peroxide in methanol.
Tissue sections were blocked in blocking buffer (5% BSA (Sigma), 1% goat serum (Jackson Immunolabs, West Grove, Pa.) in PBS) for 1 hour. Primary and secondary antibodies were precomplexed in 5% BSA and 1% goat serum in PBS for 1 hour at 37° C. at a molar ratio of approximately 10:1 of anti-GPNMB or control IgG to secondary biotinylated goat anti-human IgG (Jackson Immunolabs). Complexes were blocked with a 1:2000 dilution of human serum and incubated again for 1 hour at 37° C. Tissue sections were incubated with anti-GPNMB antibody or isotype control antibody complexes diluted in blocking buffer for 1 hour. Sections were washed in 3 changes of PBS for 5 to 10 minutes each and incubated with a 1:200 dilution of streptavidin conjugated horseradish peroxidase (Jackson Immunolabs) in blocking buffer for 30 minutes and then washed as before. Antibody was detected using DAB reagent (Vector labs). […]

[3] = biological target: T1, GPNMB; experiment: Binning of antibodies (Luminex competitive binding); settings: three bins of six anti-GPNMB antibodies
Procedure: Certain antibodies, described herein were binned in accordance with the protocol described in U.S. Patent Application Publication No. 20030157730. MxhIgG conjugated beads are prepared for coupling to primary antibody. The volume of supernatant needed is calculated using the following formula: (n+10)×50 μL (where n=total number of samples on plate). Where the concentration is known, 0.5 μg/mL is used. Bead stock is gently vortexed, then diluted in supernatant to a concentration of 2500 of each bead per well or 0.5×10^5/mL and incubated on a shaker in the dark at RT overnight, or 2 hours if at a known concentration of […]. Following aspiration, 50 μL of each bead is added to each well of filter plate, then washed once by adding 100 μL/well wash buffer and aspirating. Antigen and controls are added to filter plate 50 μL/well then covered and allowed to incubate in the dark for 1 hour on shaker. Following a wash step, a secondary unknown antibody is added at 50 μL/well using the same dilution (or concentration if known) as is used for the primary antibody. The plates are then incubated in the dark for 2 hours at RT on shaker followed by a wash step. Next, 50 μL/well biotinylated mxhIgG diluted 1:500 is added and allowed to incubate in the dark for 1 hour on shaker at RT. […]

[4] = tested on: TK10 cells; experiment: FACS anti-GPNMB staining; type: binding, human; settings: primary antibody 1 μg/mL
[5] = biological target: T1, GPNMB; experiment: ELISA of hybridoma supernatants for binding to GPNMB
Procedure: After 14 days of culture, hybridoma supernatants were screened for GPNMB specific monoclonal antibodies. In the Primary screen, the ELISA plates (Fisher, Cat. No. 12-565-136) were coated with 50 μL/well of GPNMB (1 μg/mL) in Coating Buffer (0.1 M Carbonate Buffer, pH 9.6, NaHCO3 8.4 g/L), then incubated at 4° C. overnight. After incubation, the plates were washed with Washing Buffer (0.05% Tween 20 in PBS) three times. 200 μL/well Blocking Buffer (0.5% BSA, 0.1% Tween 20, 0.01% Thimerosal in 1×PBS) were added and the plates were incubated at room temperature for 1 h. After incubation, the plates were washed with Washing Buffer three times. Aliquots (50 μL/well) of hybridoma supernatants and positive and negative controls were added, and the plates were incubated at room temperature for 2 h. The positive control used throughout was serum from the relevant GPNMB immunized XenoMouse® mouse and the negative control was serum from the KLH-immunized relevant strain of XenoMouse® mouse. After incubation, the plates were washed three times with Washing Buffer. 100 μL/well of detection antibody goat anti-huIgGfc-HRP (Caltag, Cat. No. H10507, using concentration was 1:2000 dilution) was added and the plates were incubated at room temperature for 1 hour. After incubation, the plates were washed three times with Washing Buffer. 100 μl/well of TMB (BioFX Lab. Cat. No. TMSK-0100-01) was added, and the plates were allowed to develop for about 10 minutes (until negative control wells barely started to show color). 50 μl/well stop solution (TMB Stop Solution (BioFX Lab. Cat. No. STPR-0100-01) was then added and the plates were read on an ELISA plate reader at a wavelength of 450 nm.
Hybridoma supernatants were screened for binding to GPNMB by ELISA as described above in Example 2.

Molecule	Kd [1] [nM]	ka [1] [M⁻¹ s⁻¹]	kd [1] [s⁻¹]	Bin [3]	Avg OD ([5]; 12.3 ng/mL)	Avg OD ([5]; 37 ng/mL)	Avg OD ([5]; 111 ng/mL)	Avg OD ([5]; 333 ng/mL)	Avg OD ([5]; 1 μg/mL)	Avg OD ([5]; 3 μg/mL)	staining of tissue specimens [2]	Geo Mean Ratio of anti-GPNMB Staining (relative to pK16) [4]
Mab1.7.1: human anti-GPNMB antibody; VH SEQ ID NO: 56, VL SEQ ID NO: 65 (antibody, listed as Homo sapiens, V domains shown) VH: QVQLQESGPGLVKPSQTLSLTCTVSGGSISSANYYWTWIRQHPGKGLEWIGYIYYSGSTYCNPSLKSRVIISVDTSKNQFSLKLSSVTAADTAVYYCARGYNWNYFDYWGQGTLVTVSSA VL: DIVMTQSPATLSVSPGERATLSCRASQSVSSNLAWYQERPGQAPRLLIYGASTRATGIPARFSGSGSGTEFTLTISSLQSEDFAVYYCQQYNKWPPWTFGQGTKVEIER	122	11842	0.00144									
Mab2.22.1: human anti-GPNMB antibody; VH SEQ ID NO: 164, VL SEQ ID NO: 173 (antibody, listed as Homo sapiens, V domains shown) VH: QVQLEQSGPGLVKPSQNLSLTCTVSGGSISSGGYFWSWIRQHPGKGLEWIGYIYYSGNTYYNPSLKSRVTISVDTSKNQFSLKLSSVTAADTAVYYCARDYYYDTSGFSYRYDWYYGMDVWGQGTTVTVSSA VL: DIQLTQSPSSLSASVGDRVTITCRASQGIRNDLGWYQQKPGKAPKRLIYAASSLQNGVPSRFSGSGSGTEFTLTISSLQPEDFATYYCLQHNTYPAFGQGTKVEIKR				Bin 1							Positive staining	1.10

Now from value to molecule, other results behind:

Kd [1] [nM]	ka [1] [M⁻¹ s⁻¹]	kd [1] [s⁻¹]	Bin [3]	Avg OD ([5]; 12.3 ng/mL)	Avg OD ([5]; 37 ng/mL)	Avg OD ([5]; 111 ng/mL)	Avg OD ([5]; 333 ng/mL)	Avg OD ([5]; 1 μg/mL)	Avg OD ([5]; 3 μg/mL)	Molecule	staining of tissue specimens [2]	Geo Mean Ratio of anti-GPNMB Staining (relative to pK16) [4]
96	9257	0.00089		0.049	0.094	0.199	0.356	0.499	0.763	Mab1.2.2: human anti-GPNMB antibody; VH SEQ ID NO: 38, VL SEQ ID NO: 47 (antibody, listed as Homo sapiens, V domains shown) VH: ITLKESGPTLVKPTQTLTLTCTFSGFSLSAGGVGVGWIRQPPGKALEWLALIYWNDDKRYSPSLRSRLTITKDTSKNQVVLTITNMDPVDTATYYCAHSHYDYDWGSYFDYWGQGTLVTVSSA VL: DIVMTQTPLSLPVTPGEPASISCRSSQSLLDSDDGNTYLDWYLQKPGQSPQLLIYTLSYRASGVPDRFSGSGSGTDFTLNISRVEAEDVGVYYCMQRIEFPITFGQGTRLEIKR		0.98
118	3955	0.000466								Mab1.10.2: human anti-GPNMB antibody; VH SEQ ID NO: 2, VL SEQ ID NO: 11 (antibody, listed as Homo sapiens, V domains shown) VH: QVQLQESGPGLVKPSETLSLTCTVSGDSISNYYWSWIRQPPGKGLEWIGYFYYSGSTNYNPSLKSRVTISVDTSKNQFSLKLSSVTAADTAVYYCARDRGWADYWGQGTLVTVSSA VL: EIVLTQSPGTLSLSPGERATLSCRTSQSISSSYLAWYQQKPGQVPRLLIYGASSRATGIPDRFSGSGSGTDFTLTISRLEPEDFAVYYCQQYGSSITFGQGTRLEIKR		
